This passage reports protein stability index results from the supplement of paper PMC10724198.

± gives the standard deviation of the averaged measurements.
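Also: PSI is a weighted mean of sequencing reads over stability bins, variants kept only with over 10 reads, mCherry proximal and sfGFP distal, peptide attached via GGGS linker.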

The test system of this series is Saccharomyces cerevisiae. The series is described as follows: protein stability index of tFT-peptide fusion (C-terminal peptide) (PSI (0-1 scale)); higher = more stable (slower turnover). The conditions noted are these: genetic background: wild type; temperature: 30 C.
As for RGATAKGQRRVR, the protein stability index worked out at 0.686 ± 0.046. As for RGCGAIYRGSCG, the protein stability index is 0.707 ± 0.021. RGCGGGTGDGRG yielded a protein stability index of 0.697 ± 0.045. With RGELSGVRVSVR the figure was 0.645 ± 0.043. Next, RGFGFAYVSEHI: 0.708 ± 0.075; RGFGGVLGRVFL: 0.725 ± 0.017.

On to RGFGSLSKPMCH, for which the protein stability index was 0.711 ± 0.012. With RGFLHVRCRDTC the figure was 0.7049 ± 0.0011. Next, RGGAGSWDWEAG: 0.707 ± 0.028. Next, RGGGGAKGEGVR: 0.707 ± 0.048; RGGGGGSAVEGG: 0.635 ± 0.095; RGGGGGVWGHVV: 0.58 ± 0.02. The sequence RGGGVVRGCSGG showed a protein stability index of 0.679 ± 0.014. For RGGRGLECAFYI, the protein stability index was 0.7903 ± 0.001. Sequence RGGVGGSVSFWW displayed a protein stability index of 0.707 ± 0.072. With RGGVGWGVFRVS the figure was 0.679 ± 0.064; with RGGWGGGGAAGS, 0.649 ± 0.053.

RGIEQRHFPKGA yielded a protein stability index of 0.7 ± 0.011. With RGKREEQVRGGD the figure was 0.622 ± 0.035.

RGKVVRLLLERM returned a protein stability index of 0.72 ± 0.067. In the case of RGLVIWRVGGMK, the protein stability index worked out at 0.66337 ± 0.00065. Next, RGMPMARVRSAG: 0.693 ± 0.054; RGNAMSFVCVGE: 0.658 ± 0.096. Turning to RGNPLLWHSSPR, the protein stability index was found to be 0.657 ± 0.051. On to RGPLNPNWPPTD, for which the protein stability index was determined as 0.7 ± 0.037.

RGPPIPTLRYQH had a protein stability index of 0.746 ± 0.079. With RGPTGEDLCSAM the figure was 0.696 ± 0.032. RGPVSQNPEINF displayed a protein stability index of 0.732 ± 0.02. For the sequence RGRGGDERSVRG, the protein stability index came out at 0.644 ± 0.013. With RGRGKAGGETTV the figure was 0.686 ± 0.035. RGRVLDTRDWGP: the protein stability index was found to be 0.666 ± 0.059.

In the case of RGSCPFQSWRCS, the protein stability index came out at 0.59 ± 0.038. For RGSGEVVLFGVG, the protein stability index was 0.671 ± 0.057. With RGSRVDLKLSKK the figure was 0.678 ± 0.019; with RGSWRGLADSGV, 0.676 ± 0.08; with RGTYACGMGGVG, 0.654 ± 0.074. Next, RGVAGSTLGLRI: 0.566 ± 0.069. Next, RGVGGREGAAPV: 0.691 ± 0.0093; RGVIKNKIKRLK: 0.768 ± 0.078; RGVRGLWGGKRG: 0.626 ± 0.015.

RGWDEHRVGSEY: the protein stability index is 0.671 ± 0.095. RGWKGGLSLGEI gave a protein stability index of 0.586 ± 0.021. With RGWLSAWDENGK the figure was 0.704 ± 0.019.

RHGTRHKLLGTL had a protein stability index of 0.659 ± 0.016. With RHIDSRDPTDSP the figure was 0.651 ± 0.081; with RHLFGTGIMPER, 0.683 ± 0.12; with RHPLPHNLSPYP, 0.78 ± 0.0065. With RHPSAPRPVPLM the figure was 0.695 ± 0.11; with RHTYSPRAPVPD, 0.707 ± 0.025. RIEKYKKKKETK displayed a protein stability index of 0.712 ± 0.084. Next, RIIHIHKLFLRR: 0.677 ± 0.071.

RIKHKNRNKKKN displayed a protein stability index of 0.791 ± 0.033.

As to RIKQKEEKRNRY, the protein stability index came to 0.779 ± 0.01. For RILSFVSCYSLL, the protein stability index was found to be 0.506 ± 0.0035. With RILVFCPSSFGL the figure was 0.64 ± 0.018; with RINGPLHRLSVA, 0.657 ± 0.015. RIQYKKKNRKGI yielded a protein stability index of 0.628 ± 0.037. As to RITMNMHSLIIP, the protein stability index came to 0.711 ± 0.032. As to RITTVPNSNPGN, the protein stability index is 0.689 ± 0.08. The sequence RITVPIGYHSVS had a protein stability index of 0.6891 ± 0.0009.

RKAEWIKQYDMH returned a protein stability index of 0.479 ± 0.072. Next, RKEGRGEEPEKG: 0.65 ± 0.049. Next, RKGNHAHEPSCI: 0.686 ± 0.0034; RKIERKHIKEFS: 0.664 ± 0.0089; RKIKKRITREKM: 0.617 ± 0.082. Next, RKKKKKEKKKVE: 0.741 ± 0.037; RKKKTRGKEKRR: 0.683 ± 0.097; RKKNVYGKKIKI: 0.656 ± 0.083. As to RKKRGKNEERQD, the protein stability index was determined as 0.707 ± 0.056. Consider RKLKQGIVSKKK, for which the protein stability index worked out at 0.66 ± 0.052. Next, RKLNRKEKLQLT: 0.646 ± 0.051; RKNKLKQNKKYR: 0.718 ± 0.012.

RKNYRISYKLLD displayed a protein stability index of 0.715 ± 0.02. Next, RKRSRQLNRQLK: 0.603 ± 0.0074; RKTKKKKENKRR: 0.7131 ± 0.0043. With RKTSIKNKKKKI the figure was 0.693 ± 0.059; with RKVTSIESGVMT, 0.655 ± 0.038. With RKVYHSTRNTRK the figure was 0.702 ± 0.11; with RLCFAPRVLPTH, 0.604 ± 0.041; with RLDMKLAIDISR, 0.7631 ± 0.0011.
